Consider 14 molecules from patent US20190060430A1 (published 2019).

Assay in all cases: cytokine release
In test [1] the target is T1, TPTE peptide on HLA-DRB1*13:01 (human).
T1 peptide: RRVSENKRRYTRDGF

Test [2] has as its target T2, TPTE peptide on HLA-B*07:02 (human).
T2 peptide: PRWTHLLRL

The target in test [3] is T3, TPTE peptide on HLA-DRB1*15:01 (human).
T3 peptide: DSKLYIPLEYRSISLAIAL

For test [4], the target named is T4, TPTE peptide on HLA-DRB1*15:01 (human).
T4 peptide: ILFIKHFIIYSIPRY

Test [5] deals with T5, TPTE peptide on HLA-DRB1*13:01 (human).
T5 peptide: KHFIIYSIPRYVRDLKIQI

For test [6], the target named is T6, TPTE peptide on HLA-DRB1*13:01 (human).
T6 peptide: VLLRVFVERRQQYFS

Test [7] has as its target T7, TPTE peptide on HLA-DRB1*13:01 (human).
T7 peptide: RFLDKKHRNHYRVYN

Test [8] deals with T8, TPTE peptide on HLA-DRB1*15:01 (human).
T8 peptide: LFNILDTAIIVILLL

Test [9] deals with T9, TPTE peptide on HLA-DRB1*15:01 (human).
T9 peptide: RRQQYFSDLFNILDT

Test [10] has as its target T10, TPTE peptide on HLA-DRB1*15:01 (human).
T10 peptide: DVVYIFFDIKLLRNI

Test [11] addresses T11, TPTE peptide on HLA-DQA1*01:02 / HLA-DQB1*06:02 (human).
T11 peptide: VLDNITTDKILIDVF

For test [12], the target named is T12, TPTE peptide on HLA-DQA1*01:03 / HLA-DQB1*06:02 (human).
T12 peptide: VLDNITTDKILIDVF

Test [13] deals with T13, TPTE peptide on HLA-DQA1*01:03 / HLA-DQB1*06:03 (human).
T13 peptide: VLDNITTDKILIDVF

The target of test [14] is T14, TPTE peptide on HLA-DRB1*13:01 (human).
T14 peptide: PPRRILFIKHFIIYS

Test [15] concerns the target T15, TPTE peptide on HLA-DRB1*13:01 (human).
T15 peptide: KLIRRRVSENKRRYT

Test [16] concerns the target T16, TPTE peptide on HLA-DRB1*15:01 (human).
T16 peptide: YVAYFAQVKHLYNWNLPPR

Test [17] addresses T17, TPTE peptide on HLA-DRB1*15:01 (human).
T17 peptide: IKKIVHSIVSSFAFG

The target of test [18] is T18, TPTE peptide on HLA-DRB1*07:01 (human).
T18 peptide: VFVERRQQYFSDLFN

Test [19] addresses T19, TPTE peptide on HLA-DRB1*07:01 (human).
T19 peptide: YIPLEYRSISLAIAL

B1: TCRCD4-TPT#78 (TCR, V domains shown)
Valpha: AQSVTQLDSQVPVFEEAPVELRCNYSSSVSVYLFWYVQYPNQGLQLLLKYLSGSTLVKGINGFEAEFNKSQTSFHLRKPSVHISDTAEYFCAVGPNNFNKFYFGSGTKLNVKP
Vbeta: EPEVTQTPSHQVTQMGQEVILRCVPISNHLYFYWYRQILGQKVEFLVSFYNNEISEKSEIFDDQFSVERPDGSNFTLKIRSTKLEDSAMYFCASSPVGGYNSPLHFGNGTRLTVT
For B1, the binding result in test [1] is recorded as “recognises”.

B2: TCRCD8-TPT#35/2 (TCR, V domains shown)
Valpha: AQKVTQAQTEISVVEKEDVTLDCVYETRDTTYYLFWYKQPPSGELVFLIRRNSFDEQNEISGRYSWNFQKSTSSFNFTITASQVVDSAVYFCALIEAAAGNKLTFGGGTRVLVKP
Vbeta: NAGVTQTPKFRVLKTGQSMTLLCAQDMNHEYMYWYRQDPGMGLRLIHYSVGEGTTAKGEVPDGYNVSRLKKQNFLLGLESAAPSQTSVYFCASSDGYGYTFGSGTRLTVV
Regarding B2, in test [2], the binding result was “recognises”.

B3: TCRCD4-TPT#52 (TCR, V domains shown)
Valpha: AQSVTQPDIHITVSEGASLELRCNYSYGATPYLFWYVQSPGQGLQLLLKYFSGDTLVQGIKGFEAEFKRSQSSFNLRKPSVHWSDAAEYFCAVGAQGAQKLVFGQGTRLTINP
Vbeta: NAGVTQTPKFQVLKTGQSMTLQCAQDMNHNSMYWYRQDPGMGLRLIYYSASEGTTDKGEVPNGYNVSRLNKREFSLRLESAAPSQTSVYFCASSEAGGSSFEQYFGPGTRLTVT
As for B3, the binding result in test [3] is listed as “recognises”.

B4: TCRCD4-TPT#45 (TCR, V domains shown)
Valpha: GESVGLHLPTLSVQEGDNSIINCAYSNSASDYFIWYKQESGKGPQFIIDIRSNMDKRQGQRVTVLLNKTVKHLSLQIAATQPGDSAVYFCAETRQGGKLIFGQGTELSVKP
Vbeta: GAVVSQHPSWVICKSGTSVKIECRSLDFQATTMFWYRQFPKQSLMLMATSNEGSKATYEQGVEKDKFLINHASLTLSTLTVTSAHPEDSSFYICSAPPGVTVRAYGYTFGSGTRLTVV
B4: in [4], the binding result is “recognises”.

B5: TCRCD4-TPT#77 (TCR, V domains shown)
Valpha: AQKITQTQPGMFVQEKEAVTLDCTYDTSDPSYGLFWYKQPSSGEMIFLIYQGSYDQQNATEGRYSLNFQKARKSANLVISASQLGDSAMYFCAMREGLAKTSYDKVIFGPGTSLSVIP
Vbeta: GAVVSQHPSWVICKSGTSVKIECRSLDFQATTMFWYRQFPKQSLMLMATSNEGSKATYEQGVEKDKFLINHASLTLSTLTVTSAHPEDSSFYICSAPGTGHSAGELFFGEGSRLTVL
Regarding B5, the binding result in [5] was “recognises”.

B6: TCRCD4-TPT#59 (TCR, V domains shown)
Valpha: ELKVEQNPLFLSMQEGKNYTIYCNYSTTSDRLYWYRQDPGKSLESLFVLLSNGAVKQEGRLMASLDTKARLSTLHITAAVHDLSATYFCAVDNEFYFGTGTSLTVIP
Vbeta: DTGVSQDPRHKITKRGQNVTFRCDPISEHNRLYWYRQTLGQGPEFLTYFQNEAQLEKSRLLSDRFSAERPKGSFSTLEIQRTEQGDSAMYLCASSLLGAGNIQYFGAGTRLSVL
With B6, in [6], the binding result is recorded as “recognises”.

B7: TCRCD4-TPT#42 (TCR, V domains shown)
Valpha: GQQVMQIPQYQHVQEGEDFTTYCNSSTTLSNIQWYKQRPGGHPVFLIQLVKSGEVKKQKRLTFQFGEAKKNSSLHITATQTTDVGTYFCAGSTGGGNKLTFGTGTQLKVEL
Vbeta: GAGVSQSPRYKVAKRGQDVALRCDPISGHVSLFWYQQALGQGPEFLTYFQNEAQLDKSGLPSDRFFAERPEGSVSTLKIQRTQQEDSAVYLCASSDFYEQYFGPGTRLTVT
As to B7, in test [7], the binding result is listed as “recognises”.

B8: TCRCD4-TPT#79 (TCR, V domains shown)
Valpha: AQTVTQSQPEMSVQEAETVTLSCTYDTSESDYYLFWYKQPPSRQMILVIRQEAYKQQNATENRFSVNFQKAAKSFSLKISDSQLGDAAMYFCAYRSYNAGNMLTFGGGTRLMVKP
Vbeta: KAGVTQTPRYLIKTRGQQVTLSCSPISGHRSVSWYQQTPGQGLQFLFEYFSETQRNKGNFPGRFSGRQFSNSRSEMNVSTLELGDSALYLCASSDTSGGGGEQFFGPGTRLTVL
For B8, the binding result in [8], in test [9] and in [10] was “recognises” throughout.

B9: TCRCD4-TPT#76 (TCR, V domains shown)
Valpha: AQSVTQPDIHITVSEGASLELRCNYSYGATPYLFWYVQSPGQGLQLLLKYFSGDTLVQGIKGFEAEFKRSQSSFNLRKPSVHWSDAAEYFCAVGAFTRGGSEKLVFGKGMKLTVNP
Vbeta: DGGITQSPKYLFRKEGQNVTLSCEQNLNHDAMYWYRQDPGQGLRLIYYSQIVNDFQKGDIAEGYSVSREKKESFPLTVTSAQKNPTAFYLCATGSYVGYEQYFGPGTRLTVT
As for B9, the binding result in test [11], in [12] and in test [13] was “recognises” throughout.

B10: TCRCD4-TPT#82 (TCR, V domains shown)
Valpha: AQTVTQSQPEMSVQEAETVTLSCTYDTSESDYYLFWYKQPPSRQMILVIRQEAYKQQNATENRFSVNFQKAAKSFSLKISDSQLGDAAMYFCAYRSAGLLLTFGGGTRLMVKP
Vbeta: DGGITQSPKYLFRKEGQNVTLSCEQNLNHDAMYWYRQDPGQGLRLIYYSQIVNDFQKGDIAEGYSVSREKKESFPLTVTSAQKNPTAFYLCASSKAPGQGNTQGWEQYFGPGTRLTVT
For B10, the binding result in test [14] is on record as “recognises”.

B11: TCRCD4-TPT#51 (TCR, V domains shown)
Valpha: GENVEQHPSTLSVQEGDSAVIKCTYSDSASNYFPWYKQELGKRPQLIIDIRSNVGEKKDQRIAVTLNKTAKHFSLHITETQPEDSAVYFCAALSGGSNYKLTFGKGTLLTVNP
Vbeta: EAGVTQFPSHSVIEKGQTVTLRCDPISGHDNLYWYRRVMGKEIKFLLHFVKESKQDESGMPNNRFLAERTGGTYSTLKVQPAELEDSGVYFCASSQQENTEAFFGQGTRLTVV
B11: the binding result in [15] was “recognises”.

B12: TCRCD4-TPT#49 (TCR, V domains shown)
Valpha: AQTVTQSQPEMSVQEAETVTLSCTYDTSENNYYLFWYKQPPSRQMILVIRQEAYKQQNATENRFSVNFQKAAKSFSLKISDSQLGDTAMYFCAFMKNTGNQFYFGTGTSLTVIP
Vbeta: DGGITQSPKYLFRKEGQNVTLSCEQNLNHDAMYWYRQDPGQGLRLIYYSQIVNDFQKGDIAEGYSVSREKKESFPLTVTSAQKNPTAFYLCASRRLDGLGIGELFFGEGSRLTVL
For the molecule B12, in test [16], the binding result is reported as “recognises”.

B13: TCRCD4-TPT#57 (TCR, V domains shown)
Valpha: AQSVSQHNHHVILSEAASLELGCNYSYGGTVNLFWYVQYPGQHLQLLLKYFSGDPLVKGIKGFEAEFIKSKFSFNLRKPSVQWSDTAEYFCAVNARDNAGKSTFGDGTTLTVKP
Vbeta: KAGVTQTPRYLIKTRGQQVTLSCSPISGHRSVSWYQQTPGQGLQFLFEYFSETQRNKGNFPGRFSGRQFSNSRSEMNVSTLELGDSALYLCASRGEPSSYEQYFGPGTRLTVT
Regarding B13, in [17], the binding result is given as “recognises”.

B14: TCRCD4-TPT#9 (TCR, V domains shown)
Valpha: QQQVKQSPQSLIVQKGGISIINCAYENTAFDYFPWYQQFPGKGPALLIAIRPDVSEKKEGRFTISFNKSAKQFSLHIMDSQPGDSATYFCAASFYTGNQFYFGTGTSLTVIP
Vbeta: DTAVSQTPKYLVTQMGNDKSIKCEQNLGHDTMYWYKQDSKKFLKIMFSYNNKELIINETVPNRFSPKSPDKAHLNLHINSLELGDSAVYFCASSQEALGGGYGYTFGSGTRLTVV
B14: the binding result in [18] and in test [19] was “recognises” each time.
